Measurements reported in PMC9482650, “Quantitative fragmentomics allow affinity mapping of interactomes” (Nature Communications, 2022).

System: HEK293T cells
Test: Label-free MS proteome of stable cell lines expressing HPV16 E6 or E6ΔPBM
Type: cell-based, human
Conditions: source data of Figure 6 D, IRES control line about 1; for p53 relative protein level: stable HEK293T cell line expressing the construct; for AHNAK relative protein level / LIN7C relative protein level / MPP6 relative protein level / SNX27 relative protein level: stable HEK293T cell line
Description: HEK293T and HeLa cells were authenticated and found 100% identity to ATCC cat. CRL-3216 and ATCC cat. CCL-2, respectively. Jurkat and HaCat cell lines were not authenticated (original source: ECACC and Deutsches Krebsforschungszentrum DKFZ, respectively). HeLa cells were grown in DMEM (1 g/L glucose, Gibco) medium completed with 5% FCS and 40 μg/mL gentamicin, diluted every 3rd/4th day 1/10. HaCat cells were grown in DMEM (1 g/L glucose, Gibco) medium completed with 10% FCS and 40 μg/mL gentamicin, diluted every 3rd/4th day 1/4. Jurkat cells were grown in RPMI (Gibco) medium completed with 10% FCS and 40 μg/mL gentamicin, diluted every 3rd/4th day 1/12. All cells were kept at 37 °C and 5% CO2. For proteomics analyses cells were seeded on T-175 flasks. After they reached confluency, adherent cells were washed with PBS once and collected by scraping with ice-cold lysis buffer (Hepes-KOH pH 7.5 50 mM, NaCl 150 mM, Triton X-100 1%, complete EDTA-free protease inhibitor cocktail 1×, EDTA 2 mM, TCEP 5 mM, glycerol 10%). Jurkat cells were collected by 1000 g × centrifugation, washed once with PBS, then collected by 1000 g × 5 min centrifugation again and lysed in ice-cold lysis buffer. Lysates were sonicated 4 × 20 s with 1 s long pulses on ice, then incubated rotating at 4 °C for 30 min. Lysates were centrifuged at 12,000 rpm 4 °C for 20 min and supernatant was kept for further analysis. Concentration determination was carried out by standard Bradford method (Bio-Rad Protein Assay Dye Reagent #5000006) using BSA (MP BIomedicals #160069) as control on a Bio-Rad SmartSpec 3000 spectrophotometer instrument.
The samples were precipitated with TCA 20% overnight at 4 °C and centrifuged at 14,000 rpm for 10 min at 4 °C. The protein pellets were washed twice with 1 mL cold acetone and air dried. The protein extracts were solubilized in urea 8 M, reduced with 5 mM TCEP for 30 min, and alkylated with 10 mM iodoacetamide for 30 min in the dark. Double digestion was performed at 37 °C with 500 ng endoproteinase Lys-C for 4 h, followed by fourfold dilution and an overnight digestion with 500 ng trypsin. Peptide mixtures were then desalted on C18 spin-column and dried on Speed-Vacuum.
Samples were analyzed using an Ultimate 3000 nano-RSLC (Thermo Scientific, San Jose California) coupled in line with a LTQ-Orbitrap ELITE mass spectrometer via a nano-electrospray ionization source (Thermo Scientific, San Jose California). Peptide mixtures were injected in 0.1% TFA on a C18 Acclaim PepMap100 trap-column (75 µm ID × 2 cm, 3 µm, 100 Å, Thermo Fisher Scientific) for 3 min at 5 µL/min with 2% ACN, 0.1% FA in H2O and then separated on a C18 Accucore nano-column (75 µm ID × 50 cm, 2.6 µm, 150 Å, Thermo Fisher Scientific) at 220 nl/min and 38 °C with a 90 min linear gradient from 5% to 30% buffer B (A: 0.1% FA in H2O/B: 99% ACN, 0.1% FA in H2O), regeneration at 5% B. The mass spectrometer was operated in positive ionization mode, in data-dependent mode with survey scans from m/z 350–1500 acquired in the Orbitrap at a resolution of 120,000 at m/z 400. The 20 most intense peaks from survey scans were selected for further fragmentation in the Linear Ion Trap with an isolation window of 2.0 Da and were fragmented by CID with normalized collision energy of 35%. (TOP20CID method) Unassigned and single charged states were excluded from fragmentation. The Ion Target Value for the survey scans (in the Orbitrap) and the MS2 mode (in the Linear Ion Trap) were set to 1E6 and 5E3 respectively and the maximum injection time was set to 100 ms for both scan modes. Dynamic exclusion was set to 20 s after one repeat count with mass width at ±10 ppm.
Proteins were identified by database searching using SequestHT (Thermo Fisher Scientific) with Proteome Discoverer 2.4 software (PD2.4, Thermo Fisher Scientific) on human FASTA database downloaded from SwissProt (reviewed, release 2020_11_27, 20304 entries, https://www.uniprot.org/). […]

B1: E6: wild-type HPV16 E6 oncoprotein stably expressed in HEK293T cells (protein, UniProt P03126 1-158, looked up)
chain: MHQKRTAMFQDPQERPRKLPQLCTELQTTIHDIILECVYCKQQLLRREVYDFAFRDLCIVYRDGNPYAVCDKCLKFYSKISEYRHYCYSLYGTTLEQQYNKPLCDLLIRCINCQKPLCPEEKQRHLDKKQRFHNIRGRWTGRCMSCCRSSRTRRETQL
modifications: full-length
notes: wild-type HPV16 E6 oncoprotein stably expressed in HEK293T cells
**Q.** Which results are given for B1?
**A.** p53 relative protein level (replicate 1): 0.1537; p53 relative protein level (replicate 2): 0.2546; p53 relative protein level (replicate 3): 0.1997; AHNAK relative protein level (replicate 1): 0.9544; LIN7C relative protein level (replicate 1): 0.7333; MPP6 relative protein level (replicate 1): 0.8283; SNX27 relative protein level (replicate 1): 0.8078; AHNAK relative protein level (replicate 2): 0.9923; LIN7C relative protein level (replicate 2): 0.764; MPP6 relative protein level (replicate 2): 0.8646; SNX27 relative protein level (replicate 2): 1.3738; AHNAK relative protein level (replicate 3): 1.222; LIN7C relative protein level (replicate 3): 1.025; MPP6 relative protein level (replicate 3): 0.4141; SNX27 relative protein level (replicate 3): 1.15
